Reference: article PMC11879086, “Identification and characterization of a human MORC2 DNA binding region that is required for gene silencing” (Nucleic Acids Research, 2024)

Target: T1, MORC2 dephosphorylated (wild-type) (Homo sapiens, UniProt Q9Y6X9 1-1032)
T1 sequence: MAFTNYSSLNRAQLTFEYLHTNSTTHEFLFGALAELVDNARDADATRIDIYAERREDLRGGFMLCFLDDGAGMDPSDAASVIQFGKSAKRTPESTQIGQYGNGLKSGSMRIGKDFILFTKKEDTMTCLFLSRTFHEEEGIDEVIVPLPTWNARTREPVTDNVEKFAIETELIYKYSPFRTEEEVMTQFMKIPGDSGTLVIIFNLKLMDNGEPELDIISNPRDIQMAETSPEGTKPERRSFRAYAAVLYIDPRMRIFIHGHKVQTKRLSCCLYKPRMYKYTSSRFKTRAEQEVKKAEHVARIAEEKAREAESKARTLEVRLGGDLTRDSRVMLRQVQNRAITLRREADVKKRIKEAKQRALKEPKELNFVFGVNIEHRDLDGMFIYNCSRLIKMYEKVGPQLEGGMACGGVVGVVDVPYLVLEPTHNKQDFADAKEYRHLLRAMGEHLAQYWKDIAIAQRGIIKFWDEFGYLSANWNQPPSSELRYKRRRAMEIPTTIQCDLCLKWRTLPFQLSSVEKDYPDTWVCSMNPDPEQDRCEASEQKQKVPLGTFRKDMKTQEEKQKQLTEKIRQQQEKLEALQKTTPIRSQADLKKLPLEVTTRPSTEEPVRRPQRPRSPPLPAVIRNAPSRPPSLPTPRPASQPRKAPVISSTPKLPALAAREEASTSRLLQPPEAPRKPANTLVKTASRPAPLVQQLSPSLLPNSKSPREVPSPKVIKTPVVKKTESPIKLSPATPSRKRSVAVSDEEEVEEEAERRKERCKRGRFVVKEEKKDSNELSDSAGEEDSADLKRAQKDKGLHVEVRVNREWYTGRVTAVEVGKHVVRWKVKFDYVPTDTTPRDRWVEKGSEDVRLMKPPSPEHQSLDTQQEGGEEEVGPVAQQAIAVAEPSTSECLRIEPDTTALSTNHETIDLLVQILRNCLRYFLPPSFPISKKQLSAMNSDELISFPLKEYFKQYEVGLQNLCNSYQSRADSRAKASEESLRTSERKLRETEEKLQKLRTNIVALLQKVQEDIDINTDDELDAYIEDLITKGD
Assay: fluorescence anisotropy; apo; second listing ('5 or less'); FA/EMSA: 50 mM NaCl, 3 mM MgCl2, 20 mM Na-HEPES pH 7.4, 1 mM TCEP, 10% glycerol, 0.025 mM ZnCl2, 50 ug/ml BSA, room temperature; 1 nM nucleic acid (FA) or 20 nM DNA (EMSA)
Conditions: protein: recombinant; tags: tag removed by TEV; chain copies: 2; label: 5'-6-FAM; blunt

B1: Random 35mer dsDNA (dsDNA)
DNA 1: ATAGGGTCCATCAGAATTCGGATGAACTCGGTGTG
DNA 2: CACACCGAGTTCATCCGAATTCTGATGGACCCTAT
In the case of B1, the Kd is reported as < 5 nM.
